Data as given in article PMC5493697, “Crystal structure of Pelagibacterium halotolerans PE8: New insight into its substrate-binding pattern” (Scientific Reports, 2017).
Where a chain is given by its changes, count along the chain named. Numbers in names are those of the source.

B1: PE8 (Pelagibacterium halotolerans B2; S118A) (protein)
chain: MTEPVKLSGPMLPAVSGAAKSLVVLLHGYGSDGRDLIALGQFWRDSFPDTMFVAPNAPHVCGGNPFGYEWFPLDLERDRTLARLAGAETAHPVLDAFLADLWAQTGLGPADTILVGFAQGAMMALYTGLRLPEPLKAIIAFSGLIVAPEKLEAEIASKPPVLLIHGDLDDVVPVIGSETALPKLIDLGIDARLHISQGSGHTIAQDGLDTATAFLREIL
notes: 6xHis fusion from pET28b in E. coli Rosetta (DE3), Ni-NTA and SEC; monomer; catalytic triad Ser118, Asp169, His201
B2: PE8 (Pelagibacterium halotolerans B2) (protein)
chain: B1 chain with A118S
notes: as for B1
B3: PE8 (Pelagibacterium halotolerans B2; L73A) (protein)
chain: B1 chain with L73A, A118S
notes: as for B1
B4: PE8 (Pelagibacterium halotolerans B2; R79A) (protein)
chain: B1 chain with R79A, A118S
notes: as for B1
B5: PE8 (Pelagibacterium halotolerans B2; R83A) (protein)
chain: B1 chain with R83A, A118S
notes: as for B1
B6: PE8 (Pelagibacterium halotolerans B2; M122A) (protein)
chain: B1 chain with A118S, M122A
notes: as for B1
B7: PE8 (Pelagibacterium halotolerans B2; V171A) (protein)
chain: B1 chain with A118S, V171A
notes: as for B1
B8: PE8 (Pelagibacterium halotolerans B2; V172A) (protein)
chain: B1 chain with A118S, V172A
notes: as for B1

Each protein was assayed on CC(=O)Oc1ccc([N+](=O)[O-])cc1 (assay: purified protein). Details: 100 mM Tris-HCl pH 7.5, 30 °C, 0.05-4 mM substrate in acetonitrile.
Assay type: biochemical, Pelagibacterium halotolerans
In the case of B1, the Km is reported as 540 ± 46 µM, the Vmax is reported as 12 µM/min/mg and the kcat is reported as 5.1 ± 0.14 s⁻¹. Protein B2 has a Km of 660 ± 49 µM, a Vmax of 71 µM/min/mg and a kcat of 30 ± 0.68 s⁻¹. For B3, the Km was 530 ± 26 µM, the Vmax was 55 µM/min/mg and the kcat was 23 ± 0.27 s⁻¹. B4 showed a Km of 600 ± 62 µM, a Vmax of 132 µM/min/mg and a kcat of 55 ± 1.7 s⁻¹. With B5 the Km was 600 ± 23 µM, the Vmax was 97 µM/min/mg and the kcat was 41 ± 0.42 s⁻¹. B6 was tested, and the Km was 75 ± 6.9 µM, the Vmax was 96 µM/min/mg and the kcat was 40 ± 0.68 s⁻¹. For B7, the Km was 890 ± 70 µM, the Vmax was 36 µM/min/mg and the kcat was 19 ± 0.42 s⁻¹. Protein B8 has a Km of 500 ± 35 µM, a Vmax of 82 µM/min/mg and a kcat of 35 ± 0.63 s⁻¹.
